T1: EphB3, P54753
T1 chain: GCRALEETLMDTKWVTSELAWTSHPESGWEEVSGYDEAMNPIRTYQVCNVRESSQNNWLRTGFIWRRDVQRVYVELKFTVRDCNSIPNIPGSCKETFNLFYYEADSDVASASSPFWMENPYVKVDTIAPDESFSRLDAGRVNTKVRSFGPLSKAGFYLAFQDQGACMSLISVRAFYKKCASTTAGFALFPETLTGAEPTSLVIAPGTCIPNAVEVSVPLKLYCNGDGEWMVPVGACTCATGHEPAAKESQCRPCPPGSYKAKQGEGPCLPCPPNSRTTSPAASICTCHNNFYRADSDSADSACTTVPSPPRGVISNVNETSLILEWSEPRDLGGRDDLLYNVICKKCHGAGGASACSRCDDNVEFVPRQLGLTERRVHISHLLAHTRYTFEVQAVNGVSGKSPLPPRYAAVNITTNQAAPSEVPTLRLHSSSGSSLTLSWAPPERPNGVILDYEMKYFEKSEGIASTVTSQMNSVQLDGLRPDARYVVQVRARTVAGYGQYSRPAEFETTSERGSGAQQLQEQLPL

T2: EphB2, P29323
T2 chain: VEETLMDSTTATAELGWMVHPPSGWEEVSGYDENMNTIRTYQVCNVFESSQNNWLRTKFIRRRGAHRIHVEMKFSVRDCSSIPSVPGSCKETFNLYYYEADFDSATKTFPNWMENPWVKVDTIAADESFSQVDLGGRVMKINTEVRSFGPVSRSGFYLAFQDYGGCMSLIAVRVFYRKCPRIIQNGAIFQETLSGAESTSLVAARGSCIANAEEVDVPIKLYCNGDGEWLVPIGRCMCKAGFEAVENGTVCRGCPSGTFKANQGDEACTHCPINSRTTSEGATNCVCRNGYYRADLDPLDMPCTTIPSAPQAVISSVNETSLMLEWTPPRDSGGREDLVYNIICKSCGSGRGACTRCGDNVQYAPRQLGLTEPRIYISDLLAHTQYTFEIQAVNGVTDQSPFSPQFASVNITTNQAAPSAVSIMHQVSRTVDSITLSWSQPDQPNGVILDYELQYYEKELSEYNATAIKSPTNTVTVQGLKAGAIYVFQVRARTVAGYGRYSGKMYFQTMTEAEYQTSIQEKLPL


Key:
Experiment in all cases: BLI
Details in all cases: modification not given
EphB3, P54753 = biological target: T1, EphB3, P54753
EphB2, P29323 = biological target: T2, EphB2, P29323
EphA2, P29317 = biological target: EphA2, P29317
EphA2, P29317, sequence (P29317 25-534): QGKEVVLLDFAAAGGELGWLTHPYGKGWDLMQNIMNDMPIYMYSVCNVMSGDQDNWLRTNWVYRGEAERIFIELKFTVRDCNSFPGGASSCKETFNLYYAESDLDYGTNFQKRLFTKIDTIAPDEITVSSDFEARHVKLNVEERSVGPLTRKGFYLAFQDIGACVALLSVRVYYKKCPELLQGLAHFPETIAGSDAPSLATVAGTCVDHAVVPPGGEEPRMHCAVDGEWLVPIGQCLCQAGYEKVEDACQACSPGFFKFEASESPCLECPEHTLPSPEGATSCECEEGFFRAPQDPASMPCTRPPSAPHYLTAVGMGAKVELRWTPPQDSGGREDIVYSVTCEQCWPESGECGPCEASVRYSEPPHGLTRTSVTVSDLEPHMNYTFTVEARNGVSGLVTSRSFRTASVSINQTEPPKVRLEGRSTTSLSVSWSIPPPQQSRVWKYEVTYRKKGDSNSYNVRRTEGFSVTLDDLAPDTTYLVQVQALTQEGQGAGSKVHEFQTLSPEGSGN

Kd (EphB3, P54753)	Kd (EphB2, P29323)	Kd (EphA2, P29317)	Binder
156 µM	263 µM	178 µM	QEFSPNLWGLEFKKN [xEFN_RBD4]
5070 µM			KFQLFSPFLWGFEF [xEFN_RBD2]
